Measured values as given in publication PMC2911661.

Biological target: SH2 domain of SHC1 (human) (UniProt P29353)
Experiment: peptide or protein array

Chain of UniProt P29353 (P29353 488-579): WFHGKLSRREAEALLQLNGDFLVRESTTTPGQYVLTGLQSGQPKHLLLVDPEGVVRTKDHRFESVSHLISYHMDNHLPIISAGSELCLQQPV

For “singly phosphorylated Tarp D peptide (18 amino acids around the ENIYE motif)”, the Kd was < 200 nM.
